Test results reported in publication PMC2670979.

B1: GST-Miro1 WT [not stated] / KIF5C [modified: 35S-methionine label; 35S-methionine label] [not stated] (parent)
chain 1: MKKDVRILLVGEPRVGKTSLIMSLVSEEFPEEVPPRAEEITIPADVTPERVPTHIVDYSEAEQSDEQLHQEISQANVICIVYAVNNKHSIDKVTSRWIPLINERTDKDSRLPLILVGNKSDLVEYSSMETILPIMNQYTEIETCVECSAKNLKNISELFYYAQKAVLHPTGPLYCPEEKEMKPACIKALTRIFKISDQDNDGTLNDAELNFFQRICFNTPLAPQALEDVKNVVRKHISDGVADSGLTLKGFLFLHTLFIQRGRHETTWTVLRRFGYDDDLDLTPEYLFPLLKIPPDCTTELNHHAYLFLQSTFDKHDLDRDCALSPDELKDLFKVFPYIPWGPDVNNTVCTNERGWITYQGFLSQWTLTTYLDVQRCLEYLGYLGYSILTEQESQASAVTVTRDKKIDLQKKQTQRNVFRCNVIGVKNCGKSGVLQALLGRNLMRQKKIREDHKSYYAINTVYVYGQEKYLLLHDISESEFLTEAEIICDVVCLVYDVSNPKSFEYCARIFKQHFMDSRIPCLIVAAKSDLHEVKQEYSISPTDFCRKHKMPPPQAFTCNTADAPSKDIFVKLTTMAMYPHVTQADLKSSTFWLRASFGATVFAVLGFAMYKALLKQR
chain 2: MADPAECSIKVMCRFRPLNEAEILRGDKFIPKFKGDETVVIGQGKPYVFDRVLPPNTTQEQVYNACAKQIVKDVLEGYNGTIFAYGQTSSGKTHTMEGKLHDPQLMGIIPRIAHDIFDHIYSMDENLEFHIKVSYFEIYLDKIRDLLDVSKTNLAVHEDKNRVPYVKGCTERFVSSPEEVMDVIDEGKANRHVAVTNMNEHSSRSHSIFLINIKQENVETEKKLSGKLYLVDLAGSEKVSKTGAEGAVLDEAKNINKSLSALGNVISALAEGTKTHVPYRDSKMTRILQDSLGGNCRTTIVICCSPSVFNEAETKSTLMFGQRAKTIKNTVSVNLELTAEEWKKKYEKEKEKNKTLKNVIQHLEMELNRWRNGEAVPEDEQISAKDQKNLEPCDNTPIIDNIAPVVAGISTEEKEKYDEEISSLYRQLDDKDDEINQQSQLAEKLKQQMLDQDELLASTRRDYEKIQEELTRLQIENEAAKDEVKEVLQALEELAVNYDQKSQEVEDKTRANEQLTDELAQKTTTLTTTQRELSQLQELSNHQKKRATEILNLLLKDLGEIGGIIGTNDVKTLADVNGVIEEEFTMARLYISKMKSEVKSLVNRSKQLESAQMDSNRKMNASERELAACQLLISQHEAKIKSLTDYMQNMEQKRRQLEESQDSLSEELAKLRAQEKMHEVSFQDKEKEHLTRLQDAEEMKKALEQQMESHREAHQKQLSRLRDEIEEKQKIIDEIRDLNQKLQLEQEKLSSDYNKLKIEDQEREMKLEKLLLLNDKREQAREDLKGLEETVSRELQTLHNLRKLFVQDLTTRVKKSVELDNDDGGGSAAQKQKISFLENNLEQLTKVHKQLVRDNADLRCELPKLEKRLRATAERVKALESALKEAKENAMRDRKRYQQEVDRIKEAVRAKNMARRAHSAQIAKPIRPGHYPASSPTAVHAIRGGGGSSSNSTHYQK

Variants of: B1
Experiment: GST pull-down of in vitro translated 35S-labeled protein
Conditions: with KIF5C [modified: 35S-methionine label, 2 mM Ca2+, normalized to 100 at 0 mM Ca2+, parent: 70, read off a plot

screen value | Variant
98 | chain 1 E208K E328K
